T1: LAG3 on cells (recombinant CHO cells expressing Lag3) (human, UniProt P18627 29-525)
T1 sequence: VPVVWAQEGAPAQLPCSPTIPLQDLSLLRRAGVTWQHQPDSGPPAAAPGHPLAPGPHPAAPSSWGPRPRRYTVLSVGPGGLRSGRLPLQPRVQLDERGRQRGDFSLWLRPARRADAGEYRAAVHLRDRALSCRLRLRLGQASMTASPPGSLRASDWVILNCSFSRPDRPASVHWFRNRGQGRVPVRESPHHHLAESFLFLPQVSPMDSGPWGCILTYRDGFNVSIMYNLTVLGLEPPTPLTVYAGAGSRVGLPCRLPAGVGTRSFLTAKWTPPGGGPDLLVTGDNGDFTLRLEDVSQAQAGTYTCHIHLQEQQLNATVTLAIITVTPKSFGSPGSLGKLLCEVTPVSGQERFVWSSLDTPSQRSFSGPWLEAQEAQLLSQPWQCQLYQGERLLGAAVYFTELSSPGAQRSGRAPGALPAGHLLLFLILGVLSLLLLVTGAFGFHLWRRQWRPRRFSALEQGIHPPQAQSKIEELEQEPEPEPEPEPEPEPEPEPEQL


Key:
[1] = molecular target: full-length human PD1 on cells (human, UniProt Q15116 25-288); test: cell-based or functional assay
[2] = molecular target: T1, LAG3 on cells (recombinant CHO cells …); test: cell-based or functional assay
[3] = molecular target: PD1 on PD1+LAG3+ human U2OS cells (UniProt Q15116 25-288); test: cellular PD1/LAG3 dimerization assay, 7500 PD1+LAG3+ U2OS cells a well, 20 h at 37 °C, chemoluminescence; the signal needs PD1 and LAG3 bound at once
Procedure: Next, assay plates were equilibrated to room temperature and a substrate/buffer mix (PathHunterFlash detection reagent, Discoverx) was added and again incubated for 4h. For measuring chemoluminescence induced upon simultaneous binding and dimerization a SpectraMax L plate reader (Molecular Devices) was used.

cynomolgus LAG3 on cells = molecular target: T2, cynomolgus LAG3 on cells (cynomolgus); test: flow cytometry on activated cynomolgus PBMC, 10 µg/ml (only 2nd Ab (hu): 7.62)
T2 construct: whole, on cells; also called cyno-LAG-3; cynoLAG3
Procedure: Thus, cynomolgus peripheral blood mononuclear cells (PBMC) were prepared from fresh cynomolgus blood and were then activated by CD3/CD28 pre-treatment (1 μg/ml) for 2-3 days. […] After staining, cells were washed two times with PBS/2% FCS and analyzed on a FACS Fortessa (BD).

full-length human PD1 on cells, sequence (Q15116 25-288 limits assumed): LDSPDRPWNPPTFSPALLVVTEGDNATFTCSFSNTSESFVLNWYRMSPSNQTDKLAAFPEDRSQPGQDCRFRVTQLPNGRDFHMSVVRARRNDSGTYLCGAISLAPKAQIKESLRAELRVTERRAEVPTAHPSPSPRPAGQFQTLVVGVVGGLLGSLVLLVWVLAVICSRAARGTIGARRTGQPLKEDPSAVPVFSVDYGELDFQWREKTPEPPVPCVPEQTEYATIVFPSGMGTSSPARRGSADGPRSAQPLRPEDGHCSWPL
PD1 on PD1+LAG3+ human U2OS cells, sequence (Q15116 25-288): as the sequence (Q15116 25-288 limits assumed) above

| Binder | EC50 [nM], PD-1 & LAG-3 combo reporter assay (NFAT luciferase) [1] | EC50 [nM], PD-1 & LAG-3 combo reporter assay (NFAT luciferase) [2] | EC50 (read off the curve) [3] | % positive cyno cells (PBLs) after CD3/CD28 activation (cynomolgus LAG3 on cells) |
| --- | --- | --- | --- | --- |
| PD1/LAG3 0750 (bispecific antibody, human IgG1, kappa, L234A L235A, 2+1 trans format: one LAG3 Fab N-terminal, one fused to the C-terminus of the Fc hole chain; also called 1 + 2 trans) heavy 1: not shown heavy 2: EVQLLESGGGLVQPGGSLRLSCAASGFIFDDYTMNWVRQAPGKGLEWVAVISWDGGGTYYTDSVKGRFTISRDDFKNTLYLQMNSLRAEDTAVYYCAKGLTDTTLYGSDYWGQGTLVTVSSASTKGPSVFPLAPSSKSTSGGTAALGCLVEDYFPEPVTVSWNSGALTSGVHTFPAVLQSSGLYSLSSVVTVPSSSLGTQTYICNVNHKPSNTKVDEKVEPKSCDKTHTCPPCPAPEAAGGPSVFLFPPKPKDTLMISRTPEVTCVVVDVSHEDPEVKFNWYVDGVEVHNAKTKPREEQYNSTYRVVSVLTVLHQDWLNGKEYKCKVSNKALGAPIEKTISKAKGQPREPQVCTLPPSRDELTKNQVSLSCAVKGFYPSDIAVEWESNGQPENNYKTTPPVLDSDGSFFLVSKLTVDKSRWQQGNVFSCSVMHEALHNHYTQKSLSLSPGKGGGGSGGGGSEVQLLESGGGLVQPGGSLRLSCAASGFIFDDYTMNWVRQAPGKGLEWVAVISWDGGGTYYTDSVKGRFTISRDDFKNTLYLQMNSLRAEDTAVYYCAKGLTDTTLYGSDYWGQGTLVTVSSASTKGPSVFPLAPSSKSTSGGTAALGCLVEDYFPEPVTVSWNSGALTSGVHTFPAVLQSSGLYSLSSVVTVPSSSLGTQTYICNVNHKPSNTKVDEKVEPKSC light 1: EVQLLESGGGLVQPGGSLRLSCAASGFSFSSYTMSWVRQAPGKGLEWVATISGGGRDIYYPDSVKGRFTISRDNSKNTLYLQMNSLRAEDTAVYYCVLLTGRVYFALDSWGQGTLVTVSSASVAAPSVFIFPPSDEQLKSGTASVVCLLNNFYPREAKVQWKVDNALQSGNSQESVTEQDSKDSTYSLSSTLTLSKADYEKHKVYACEVTHQGLSSPVTKSFNRGEC light 2: not shown | 0.6 nM | 0.6 nM | ~0.06 nM |  |
| Reference LAG3 antibody BMS-986016 (antibody, V domains shown, also called aLAG3(BMS986016)) VH: QVQLQQWGAGLLKPSETLSLTCAVYGGSFSDYYWNWIRQPPGKGLEWIGEINHRGSTNSNPSLKSRVTLSLDTSKNQFSLKLRSVTAADTAVYYCAFGYSDYEYNWFDPWGQGTLVTVSS VL: EIVLTQSPATLSLSPGERATLSCRASQSISSYLAWYQQKPGQAPRLLIYDASNRATGIPARFSGSGSGTDFTLTISSLEPEDFAVYYCQQRSNWPLTFGQGTNLEIK |  |  |  | 18.6% |

— patent US20220387586A1 (Hoffmann-La Roche, published 2022)
